The results in this text go back to patent US20130142799A1 (Amgen, published 2013).

T1: murine Ang-2, His-tagged (mouse, UniProt O35608 19-496)
T1 construct: also called mAng-2; mAng-2-His
T1 sequence (looked up): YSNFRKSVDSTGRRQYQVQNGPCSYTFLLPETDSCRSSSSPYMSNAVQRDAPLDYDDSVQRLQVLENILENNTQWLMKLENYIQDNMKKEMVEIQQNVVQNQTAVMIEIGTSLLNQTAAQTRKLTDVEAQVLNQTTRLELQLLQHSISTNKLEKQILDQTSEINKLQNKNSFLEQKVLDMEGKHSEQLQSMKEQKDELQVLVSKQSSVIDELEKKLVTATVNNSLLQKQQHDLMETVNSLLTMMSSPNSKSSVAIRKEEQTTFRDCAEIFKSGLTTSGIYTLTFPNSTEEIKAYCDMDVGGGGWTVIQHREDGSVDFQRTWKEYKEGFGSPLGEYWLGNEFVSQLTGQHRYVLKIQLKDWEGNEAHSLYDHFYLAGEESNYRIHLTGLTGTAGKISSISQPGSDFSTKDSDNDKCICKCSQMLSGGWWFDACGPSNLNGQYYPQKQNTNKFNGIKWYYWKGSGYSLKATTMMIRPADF

T2: human angiopoietin-2 (human, UniProt O15123 19-496, limits assumed)
T2 construct: also called hAng-2; huAng-2
T2 sequence (looked up): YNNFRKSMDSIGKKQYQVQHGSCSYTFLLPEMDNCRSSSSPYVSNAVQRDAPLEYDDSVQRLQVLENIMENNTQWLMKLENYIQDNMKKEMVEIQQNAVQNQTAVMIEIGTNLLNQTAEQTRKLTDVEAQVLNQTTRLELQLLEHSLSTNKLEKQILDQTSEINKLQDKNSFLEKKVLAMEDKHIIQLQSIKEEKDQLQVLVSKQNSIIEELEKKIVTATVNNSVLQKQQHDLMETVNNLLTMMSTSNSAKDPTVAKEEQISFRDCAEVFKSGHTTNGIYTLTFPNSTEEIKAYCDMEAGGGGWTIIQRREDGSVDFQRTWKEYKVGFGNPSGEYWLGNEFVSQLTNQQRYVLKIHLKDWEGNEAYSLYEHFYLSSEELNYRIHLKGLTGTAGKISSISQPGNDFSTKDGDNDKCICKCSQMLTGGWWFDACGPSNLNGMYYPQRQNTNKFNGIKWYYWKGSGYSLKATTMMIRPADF

T3: human angiopoietin-1 (human, UniProt Q15389 20-498)
T3 construct: also called hAng-1; Human Ang1
T3 sequence (looked up): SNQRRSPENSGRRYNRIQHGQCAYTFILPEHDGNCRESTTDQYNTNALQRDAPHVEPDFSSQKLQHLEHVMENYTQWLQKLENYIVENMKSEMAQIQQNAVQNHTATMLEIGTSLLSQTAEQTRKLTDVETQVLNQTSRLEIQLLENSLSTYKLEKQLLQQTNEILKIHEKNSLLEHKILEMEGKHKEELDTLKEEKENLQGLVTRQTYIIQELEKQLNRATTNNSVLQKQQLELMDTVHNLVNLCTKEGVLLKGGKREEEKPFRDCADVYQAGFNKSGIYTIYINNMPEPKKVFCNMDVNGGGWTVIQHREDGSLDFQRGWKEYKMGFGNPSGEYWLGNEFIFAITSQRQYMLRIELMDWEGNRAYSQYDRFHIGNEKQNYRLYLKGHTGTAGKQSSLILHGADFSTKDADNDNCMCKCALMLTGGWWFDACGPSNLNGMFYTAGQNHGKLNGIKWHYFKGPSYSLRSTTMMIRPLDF

B1: Ab 536 (THW/LQT mixture) (antibody, V domains shown)
VH: EVQLVQSGGGVVQPGRSLRLSCAASGFTFSSYGMHWVRQAPGKGLEWVSYISSSGSTIYYADSVKGRFTISRDNAKNSLYLQMNSLRAEDTAVYYCARDLLDYDILTGYGYWGQGTLVTVSS
VL: not shown
notes: each antibody in the mixture has two heavy and two light chains; also called clone 536; copies: 2 + 2
B2: Ab 543 (antibody, human IgG1, kappa, V domains shown)
VH: QVQLVQSGAEVKKPGSSVKVSCKASGGTFSSYAISWVRQAPGQGLEWMGRIIPILGIANYAQKFQGRVTITADKSTSTAYMELSSLRSEDTAVYYCARPYYDFWSGPGGMDVWGQGTTVTVSS
VL: not shown
notes: Fully human IgG1 kappa
B3: Ab 555 (antibody, human IgG1, kappa, V domains shown)
VH: QVQLQESGGGVVQPGRSLRLSCAASGFTFSSYAMHWVRQAPGKGLEWVAVISYDGSNKYYADSVKGRFTISRDNSKNTLYLQMNSLRAEDTAVYYCARSASDHYYDSSGYYSDAFDIWGQGTMVTVSS
VL: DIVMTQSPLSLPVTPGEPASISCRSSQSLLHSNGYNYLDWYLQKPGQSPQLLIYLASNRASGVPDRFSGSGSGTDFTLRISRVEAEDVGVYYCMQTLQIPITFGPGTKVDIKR
notes: Fully human IgG1 kappa
B4: Ab 553 (antibody, human IgG1, kappa, V domains shown)
VH: QVQLVQSGAEVKKPGASVKVSCKASGYTFTSYAMHWVRQAPGQRLEWMGWINAGNGNTKYSQKFQGRVTITRDTSASTAYMELSGLRSEDTAVYYCARGVDDYGGNSWAFDIWGQGTMVTVSS
VL: DIVMTQSPLSLPVTPGEPASISCRSSQSLLHSNGYNYLDWYLQKPGQSPQLLIYLGSNRASGVPDRFTGSGSATDFTLRISRVEAEDVGVYYCMQALQTPLTFGGGTKVEIKR
notes: Fully human IgG1 kappa
B5: Ab 533 (antibody, human IgG1, kappa, V domains shown)
VH: B1 VH
VL: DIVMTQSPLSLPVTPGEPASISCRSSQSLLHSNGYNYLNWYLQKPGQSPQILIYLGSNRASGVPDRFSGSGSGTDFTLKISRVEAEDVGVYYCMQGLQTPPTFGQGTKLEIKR
notes: also called clone 533
B6: Ab 540 (antibody, human IgG1, lambda, V domains shown)
VH: QVQLVQSGAEVKKPGSSVKVSCKASGGTFSSYAISWVRQAPGQGLEWMGGIIPILGIANYAQKFQGRVTITADKFTSTAYMELSSLGSEDTAVYYCARAVPGTEDAFDIWGQGTMVTVSS
VL: QSVLTQPPSVSAAPGQKVTISCSGSSSNIGANYVSWYQQLPGTAPKLLIYNNNKRPSGIPDRFSGSKSDTSATLGITGLQTGDEADYYCGAWDSSLSASWVFGGGTKLTVLG
notes: Fully human IgG1 lambda
B7: Ab 531 (antibody, human IgG1, lambda, V domains shown)
VH: EVQLVQSGAEVKKPGSSVKVSCKASGGTFSSYAISWVRQAPGQGLEWMGGIIPILGIANYAQKFQGRVTITADKSTNTAYMELTSLTSDDTAVYYCARDREDTAMVFNYWGQGTLVTVSS
VL: B6 VL with I20V, A31N, N51D, D69G, A91T, S99F
notes: Fully human IgG1 lambda
B8: Ab G1D4 (antibody, human IgG1, lambda, V domains shown)
VH: QVQLVQSGAEVKKPGSSVKVSCKASGGTFSSHAISWVRQAPGQGLEWMGRIIPILGIANYAQKFQGRVTITADESTSTAYMELSSLRSEDTAVYYCATSRLEWLLYLDYWGQGTLVTVSS
VL: NFMLTQPHSVSESPGKTVIIPCTRSSGSIASNYVQWYQKRPGSAPSIVIYEDKQRPSGVPDRFSGSIDSSSNSASLTISGLKTEDEADYYCQSYNSRGVMFGGGTKLTVLG
notes: Fully human IgG1 lambda
B9: Ab 537 (antibody, human IgG1, V domains shown)
VH: QVQLVQSGAEVKKPGSSVKVSCKASGGTFSSYAISWVRQAPGQGLEWMGGIIPILGIANYAQKFQGRVTITADKSTSTAYMELSGLGSEDTAVYYCARGSSDAAVAGMWGQGTLVTVSS
VL: QSVLTQPPSVSAAPGQDVTISCSGNNSNIGNNYVSWYQQVPGTAPKLLVYDNHKRPSGISDRFSGSKSDTSATLDITGLQPGDEADYYCGTWDTSLSANWVFGGGTKLTVLR
notes: Fully human IgG1 lambda; also called clone 537
B10: Ab 528 (antibody, human IgG1, lambda, V domains shown)
VH: QVQLVQSGAEVKKPGSSVKVSCKASGGTFSSYAISWVRQAPGQGLEWMGGIIPIFGTANYAQKFQGRVTITADESTSTAYMELSSLRSEDTAVYYCARGVVGDFDWLSFFDYWGQGTLVTVSS
VL: SYELTQPPSVSVSPGQTASITCSGDKLGYTYTSWFQQKPGQSPVLVIFQDFKRPSGIPERFSGSNSGNTATLTISGTQAMDEADYYCQAWDSTTAVVFGTGTKVTVLG
notes: Fully human IgG1 lambda
B11: Ab 544 (antibody, human IgG1, lambda, V domains shown)
VH: QVQLVQSGAEVKKPGASVKVSCKASGGTFSSYAISWVRQAPGQGLEWMGGIIPIFGTANYAQKFQGRVTITADESTSTAYMELSSLRSEDTAVYYCARFESGYWGDAFDIWGQGTMVTVSS
VL: SYELTQPPSVSVSPGQTARITCSGDALPKQYAYWYQQKPGQAPVLVIYKDSERPSGIPERFSGSSSGTTVTLTISGVQAEDEADYYCQSADSSHVVFGGGTKLTVLG
notes: also called clone 544
B12: Ab 535 (antibody, human IgG1, lambda, V domains shown)
VH: B11 VH with A16S, E74K, R98A, E100S, S101P, G102F, Y103T, W104E, G105T
VL: QSVLTQPPSVSAAPGQKVTISCSGSNSNIGNNFVSWYQQLPGTAPKLLVYDNNKRPSGIPDRFSGSKSGTSATLGITGLQTGDEADYYCGTWDSSLSAAEVVFGGGTKLTVLG
notes: Fully human IgG1 lambda
B13: Ab 526 (antibody, human IgG1, kappa, V domains shown)
VH: EVQLVESGGGVVQPGRSLRLSCAASGFTFSSYGMHWVRQAPGKGLEWVSAISGSGGSTYYADSVKGRFTISRDNAKNSLYLQMNSLRAEDTAVYYCARDLLDYDILTGPYAYWGQGTLVTVSS
VL: not shown
notes: Fully human IgG1 kappa

Broadly, the Kd is the free concentration of one partner at which half of the binding sites on the other are occupied at equilibrium, for simple one-to-one binding. A higher Kd goes with a looser complex. Usually koff stands for the rate constant with which the complex falls apart. A lower koff goes with slow dissociation. As a reminder, the kon is a measure of how fast the partners come together. Higher therefore signals faster complex formation. In general, IC50 refers to the concentration that gives 50% inhibition. Read a low IC50 as higher potency. By EC50 is commonly meant the concentration needed to bring the measured effect to its halfway point. Read a low EC50 as higher potency in that assay.

Changes are numbered by the printed parent chain.

The target in the first assay is T1, murine Ang-2, His-tagged. Nature of the assay: BIAcore: antibody captured on Protein G, mAng-2 injected. How it is done:
(§1) Binding assays were carried out by first attaching about 100 Ru of each candidate anti-Ang-2 antibody to the immobilized Protein G, after which various concentrations (0-100 nM) of huAng-2 or mAng-2 were then injected over the bound antibody surface at a flow rate of about 50 ul/min for about 3 minutes. Antibody binding kinetics including kₐ (association rate constant), kd (dissociation rate constant) and KD (dissociation equilibrium constant) were determined using the BIA evaluation 3.1 computer program (BIAcore, Inc.).
Background: SPR reads the build-up and loss of mass on a sensor chip optically.
In turn, B1 displayed a Kd of 0.15 nM, a koff of 9.5e-05 s⁻¹ and a kon of 620000 M⁻¹ s⁻¹.

For another assay, the target named is T1, murine Ang-2, His-tagged. Nature of the assay: Neutralization ELISA: antibody titrated against 1 nM Tie2-Fc on plate-bound mAng-2.
B2 had an IC50 of 0.24 nM.

B3: half-maximal inhibition (IC50) required 1.76 nM.

In turn, B4 came in with an IC50 of 1.41 nM.

For B1, the IC50 stood at 0.05 nM.

B5 showed an IC50 of 0.08 nM.

For B6, inhibition was half-maximal at 1.53 nM (IC50).

The molecule B7 gave an IC50 of 1.67 nM.

Consider B8, for which the IC50 turned out to be 0.6 nM.

The molecule B9 came in with an IC50 of 0.62 nM.

In turn, B10 had an IC50 of 0.73 nM.

Turning to B11, 1.82 nM corresponded to half-maximal inhibition (IC50).

In the case of B12, the IC50 was found to be 2.45 nM.

As for B13, the IC50 came out at 0.27 nM.

The next assay deals with T2, human angiopoietin-2. Put plainly: Neutralization ELISA: antibody titrated against 1 nM Tie2-Fc on plate-bound hAng-2. How it is done: Microtiter plates to which human Ang-2 polypeptide was bound were prepared as described for the Affinity ELISA. […] Next, about 100 microliters per well of goat anti-mouse-IgG-HRP (Pierce Chemical CO., catalog #31432) was added at a dilution of 1:10,000 in PBS containing about 1 percent BSA. Plates were incubated at room temperature for about 1 hour, after which they were washed five times with PBS containing about 0.1 percent Tween-20. About 100 microliters per well of TMB substrate (described above) was then added and color was allowed to develop. Absorbance was then read in a spectrophotomer at 370 nm.
Seventeen of the antibodies and a negative control IgG1 (referred to as RDB1) were tested using affinity and neutralization ELISA (as described in Example 3 above) as well as the BIAcore neutralization assay to determine their affinity, neutralization, and specificity capabilities.
Take B2: half-maximal inhibition (IC50) required 0.51 nM.

Consider B3, for which the IC50 stood at 2.21 nM.

In the case of B4, inhibition was half-maximal at 1.47 nM (IC50).

Regarding B1, 0.08 nM corresponded to half-maximal inhibition (IC50).

B5 gave an IC50 of 0.3 nM.

B6 showed an IC50 of 0.7 nM.

With B7, the IC50 worked out at 2.15 nM.

As to B8, the midpoint of inhibition, the IC50, lay at 1.39 nM.

B9 displayed an IC50 of 0.56 nM.

Molecule B10 displayed an IC50 of 1.37 nM.

B11 yielded an IC50 of 0.97 nM.

B12 came in with a half-maximal inhibitory concentration (IC50) of 2.81 nM.

The molecule B13 yielded an IC50 of 1.83 nM.

In another assay the target is T2, human angiopoietin-2. Nature of the assay: BIAcore: antibody captured on Protein G, huAng-2 injected. How it is done:
as §1
B1 yielded a Kd of 0.12 nM, a koff of 3.8e-05 s⁻¹ and a kon of 320000 M⁻¹ s⁻¹.

The target in a further assay is T3, human angiopoietin-1. Nature of the assay: Neutralization ELISA: antibody titrated against 1 nM Tie2-Fc on plate-bound hAng-1. Background: ELISA stands for enzyme-linked immunosorbent assay.
B1 came in with an IC50 of 115 nM.

On to B8, for which the IC50 was determined as 69.5 nM.

For the molecule B11, the midpoint of inhibition, the IC50, lay at 23.3 nM.

Molecule B13 showed an IC50 of 243 nM.

The target of a further assay is T2, human angiopoietin-2. Put plainly: Affinity ELISA on plate-bound hAng-2.
In turn, B1 showed an EC50 of 0.005 nM.

In another assay the target is T1, murine Ang-2, His-tagged. Put plainly: Affinity ELISA on plate-bound mAng-2.
Regarding B1, the EC50 was found to be 0.01 nM.

The target in another assay is T3, human angiopoietin-1. Nature of the assay: Affinity ELISA on plate-bound hAng-1.
In turn, B1 yielded an EC50 of 30 nM.
